# According to the nanobody polyreactivity screen of Harvey et al. (2022):
# Test: yeast display, Sf9 membrane polyspecificity reagent, FACS + sequencing; frameworks hold sequencing errors
# Procedure, shortened: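 Sorting gates, low and high (top ~1%), were placed on anti-HA fluorescence to track expression and on streptavidin fluorescence to track reagent binding. A clone's polyreactivity label is taken from the gate it came out of. The reagent was 10% biotinylated, detergent-solubilized Sf9 membrane, applied for 1 hour at 4 °C to galactose-induced yeast display cells.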
row,Sequence,polyreactivity (PSR sort gate)
1,QDQLVDSRGGLVKAGGSLRLSCSASGRTFYYYAMGWSRQAPGQERELVADINTRVTSTYYADSVKGRFTISRDNAKNTVYLQMNSLKPEDTGVYYCAVDPYGDSWEDWLRNYYYGYDYWGQGTQVTVSS,low polyreactivity
2,QVQLVESGGGLVQAGGSLRLSCAASGYTFSSNAMGWYRQATGKVSELVATNSSGGSTYYADSVKGRFTISRDNAKNTVYLQMYSLKPEDTAVYYCAADDLGWWFYSGGEDYYYWGQGTQVTVSS,low polyreactivity
3,QVQLVESGGGLVQAGGSLRLSCAASGLTLAWYAMGGYRQAPGKERELVAAISWSGDSTYYADSVKGRFTISRDNAKNTVYLQMNSLKPEDTAVYYCATRVYGGYGYWGQGTQVTVSS,high polyreactivity
4,QVQLVESGGGLVQAGGSLRLSWAASGLIFYWYAMGWYRQAPGKERELVAAINRGGSTYYADSVKGRFTISRDNAKNTVYLQMNSLKPEDTAVYYCAAGGYRGRKRFGWDYTYNYWGQGTQVTVSS,low polyreactivity
5,QVQLVESGGGLVQAGGTLRLSCAASGRTFRQNAMGWYRQAPGKERELVAAISVNGGRTYYADSVKGRFTITRDNAKITVYLQMNSLKPEDTAVYYCAAESYRIPRRSGYDYWGQGTQVTVSS,high polyreactivity
6,QVQLVESGGGLVQAGGSLRLSCAASGSIFGANTMGWYRQAPWKERELVAGITSRARTYYADSVKGRFTISRDNAKNTVYLQMNSLKPEDTAVYYCAAKYAWRRYGYWGQGTQVTVSS,high polyreactivity
7,QVQLVESGGGLVQAGGSLRLSCAASGRTFLRNAMGWYRQAPGKERELVATISWGGGSTYYADSVKGRFTISRDNAKNTVYLQMNSLKPEDTAVYYCAKQRAWSGFDYWGQGTQVTVSS,high polyreactivity
8,QVQLVESGGGLVQAGGSLRLSCAASGSTFGVNDMGWYRQAPWKERELVAAISRGAITNYADSVKGRFTISRDNAKNTVYLQMNSLKPEDTAVYYCAAGFVTYYVPQYKEYGYDYWGQGTQVTVSS,low polyreactivity
9,QVHLVESGGGLVQAGGSLRLSCAASGSTFQLYAMGWYRQAPGKERELVAAITSSAGRTYYADSVKGRFTISRDNAKNTVYLQMNSLKPEDTAVYYCAKDGSFTFWGQGTQVTVSS,low polyreactivity
10,QVQLVESGGALVQAGGSLRLICAASGSILYAYAMGWYRQAPGKERELVATNSYRGDRTRYADSVKGRFTISRDNAKNTVYLQMNSLKPEDTAVYSCAAKRKTSVPPVVKWSGYWGQGTQVTVSS,high polyreactivity
11,QDQLVESGGGLVQAGGSLRLSCAASGRIFKYKAMGRYRQAPGKERELVAAIRRSGGSTYYADSVKGRFTISRDYAKNTVYLQMNSLKPEDTAVYFCNRLYGPGFKSVYGYDYWGQGTQVTVSS,high polyreactivity
12,QVQLVESGGGLVQAGGSLRLSCAASGGIFFPNAIGWYRQAPGKERELVAAISWSAGSTYYADSVKGRFTISRDNAKNTVYLQMNSLKPEDTAVYYCAAAGSNYTVWYGYYYWGQGTQVTVSS,low polyreactivity
13,QVQLVESGGGLVQAGGSLRLSCAASGRIFRHNAMGWYRQAPGKESELVAAISGGGTTYYADSVKGRFTISRDNAKNTVYLQMNSLKPEDTAVYYCAARRRGSVGVGYAYPYNYWGQGTQVTVSS,high polyreactivity
14,QVQLVESGGGLVQAGGSLRLSCAASGSTFENYVRGWYRQAPGKERELFAAISRGGGSTHYADSVKGRFTISRDNAKITVYLQKKSLKPEDTAVYYCAARYQTYVGSSSISTGIYYYWGQGTQVTVSS,low polyreactivity
15,QVQLVETGGGLVPAGGSLRLSCAASGSTFQRYAMGWYRQAPGKERELVAAITWSGGSTKYADSVKGRFTISRDNAKNTVYLQMNSMKPEDTAVYYCARTYGSSRWGQGTQVTVSS,low polyreactivity
16,QVQLVESGGGLVQAGGSLRLICAASGGIFWYNAMGWYRPAPGKERELVADISSSGITYYADSVKGRFTISRDNAKNTVYLQMNSLKPEDTAVYYCAADSTTRPGLRVYDDYDYWGQGTQLTVSS,low polyreactivity

row,Sequence,polyreactivity (PSR sort gate)
1,QVQLVESGGGLVQAGGSLRLSCAASGSIFRIKAMGWSRQAPGKERELVAAITGRVGSTYYADSVKGRFTISRDNAKNTVYLQMNSLKPEDTAVYYCAARAGSSRYTREYRYDYWGQGTQVTVSS,high polyreactivity
2,QVQLVESGGGLVQAGGSLRLSCAASGRIFGNYAMGWYRQAPGKERELVASISRRGGSTYYADSVKGRFTISRDNAKNTVYLQMIRLKPEDTAVYYCATLRGRLRFGYDYWGQGTQVTVSS,high polyreactivity
3,QVQLVESGGGIVQAGGSLRLSCAASGNNIGGNAMGWYRQAPGKERELVAAISNSGVRTYYADSVKGRFTISRDNAKNSVDLQMNSLKPEDTAVYYCYVLGNYYGKFDYWGQGTQVTVSS,high polyreactivity
4,QVQLVESGGGLVQAGGSLRLSCAASGRIFSINAMGWYRQAPGKERELVAAITWSGGSTYYADSVKGRFTISRDNAKNTVYLQMNILKPEDTAVYYCAARLPWYIPTPSYRIAGGNYWGQGTQVTVSS,low polyreactivity
5,QVQLVESGGGLVQAGGSLRLSCAASGSNFRYNAIGWYRQAPGKERELVAAISWSGGSTYYADSVKGRFTISRDNAKNTVYLQMNSLKPEDTAVYYCATRYYGIVPGRRYGYWGQGTQVTVSS,low polyreactivity
6,QVQLVESGGGLVQAGGSLRLSCASSGSTFGINAMGGYREAPGKERELVAAITFISGSTNYADSVKGRFTISRDKAKNTVNLQMNCLKPEDTAVYYCAADSVYYAGYDVDYWGQGTQVTVSS,low polyreactivity
7,QVQLVESGGGLVQAGGSLRFSCAASGSTFIGYDMGWYRQEPGKERELVAAISYSDGTYYAESVKGRFTISRDNAKNTVYLQMNSLNPEDTAVYYCAADSLYYRYDYWGQGTQVTVSS,low polyreactivity
8,QVQLVESGGGLVQAGGSLRLSCAASGFTFSSYVMGWYRQAPGKERELVAAISGSGGSTYYADSVKGRFTISRDNAKNTVYLQMNSLKPEDTAVYYCAAVRRVGPTSYYYWGQGTQVTVSS,high polyreactivity
9,QVQLQESGGGLVQAGGRLRLSCAASGNIFEADIMGWYNKAQGKERELVASITDGGSTNYADSVKGRFTINRYNAKNNVYLQMNSLKPEDTAVYYCAAIAYPDIPTYFDYDSDYFYWGQGTQVTVSS,high polyreactivity
10,QVQLVESGGGLVQAGGSLRLSCAASGRTIPSNAMGWYRQAPGKERELVAAITRSGGSTKYADSVKGRFTISRDNAKNTVYLQMNSLKPEDTAVYYCAGRYHSGSQVWYNYWGQGSQVTVSS,high polyreactivity
11,QVQLVESGGGLVQAGGSLRLSCAASGFISRFNSMGWYRKAPGKERELVAAISWYGGITYYADSVKGRFTISRDNAKNTVYLQMNSLKPEDTAVYYCNAGDHIRKRYGISATWGYGYGYWGQGTQVTVSS,high polyreactivity
12,QVQLVESGGGLVQAGGSLRLSCAASGRLFSYNAMGWYSQAPGKERELVAGITYGSTYYADSVKGRFRISRDNAKNTVYLQMNSLKPEDTAVYYSAADQSYTSVHGYRSDTLMDYWGQGTQGTVSS,low polyreactivity
13,QVQLQERGGGLVQAGGSLRQSCAASGTISDRAGMGWYRQAPAKNAIVATIDRGTNTNYADSVKGRFTISRDNAKNTVYLQMNSLKPEDTAVYNCAAVGRYNIYLDYWGQGTQVTVSS,low polyreactivity
14,QVQLVESGGGLVQAGGSLRLSCAASGSIFSRNAMGWYRQAPGKEREFVARISWSSTSTNYAESVKGRFTISRDNAKNTVYLQMNSLKPEDSAVYYCAAHFRGDRRFDYWGQGTQVTVSS,high polyreactivity
15,QVQLVESGGGLVQAGGSLRLSCAASGFTFWLYAMGWYRQAPGKERELVAAIDWDGGTYYADSVKGRFTISRDNAKNTVYLQMNSLKPEDTAVYYCAARYRYYYTRYDYWGQGTQVTVSS,high polyreactivity
